From US20150118286A1

Assays:
[1] = target: Human tyrosinase (human), P14679; test: cell-based or functional assay
[2] = target: Mushroom tyrosinase (mushroom), C7FF04; test: cell-based or functional assay

Chain of Human tyrosinase (human), P14679 (P14679 19-529): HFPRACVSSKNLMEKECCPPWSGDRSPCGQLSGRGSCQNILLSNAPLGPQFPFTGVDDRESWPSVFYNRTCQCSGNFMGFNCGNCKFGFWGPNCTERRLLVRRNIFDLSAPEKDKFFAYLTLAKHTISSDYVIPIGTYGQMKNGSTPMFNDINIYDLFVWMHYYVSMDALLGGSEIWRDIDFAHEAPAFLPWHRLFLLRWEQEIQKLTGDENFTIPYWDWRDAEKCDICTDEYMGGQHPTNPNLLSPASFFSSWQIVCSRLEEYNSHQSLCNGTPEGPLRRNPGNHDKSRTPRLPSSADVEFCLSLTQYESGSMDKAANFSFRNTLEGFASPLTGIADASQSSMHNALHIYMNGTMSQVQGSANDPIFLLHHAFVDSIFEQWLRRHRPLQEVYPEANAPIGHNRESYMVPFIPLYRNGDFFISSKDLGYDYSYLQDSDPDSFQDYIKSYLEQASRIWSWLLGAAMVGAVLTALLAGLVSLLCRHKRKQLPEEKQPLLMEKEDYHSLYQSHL

Binder	reduction of total melanin content in MNTI cells (3 days, peptide at twice the IC50) [1] [%]	IC50 [µM], mushroom tyrosinase inhibition (dopachrome OD 475 nm, L-tyrosine substrate) [2] [µM]
RRWWRRYY [P16 peptide]	45	
RRYWYWRR [P18 peptide]	41	

Other lines, results leading:

reduction of total melanin content in MNTI cells (3 days, peptide at twice the IC50) [1] [%]	IC50 [µM], mushroom tyrosinase inhibition (dopachrome OD 475 nm, L-tyrosine substrate) [2] [µM]	Binder
38		RRRYWYYR [P17 peptide]
	1120	RRFVCC (modifications not checked) [P15 peptide]
